# In the DeepSol protein solubility set:
# Experiment: soluble on expression in E. coli; label from the status in PepcDB or PDB records
row,Sequence,soluble on expression in E. coli
1,MGSDKIHHHHHHMAAPAGGGGSAVSVLAPNGRRHTVKVTPSTVLLQVLEDTCRRQDFNPSEYDLKFQRTVLDLSLQWRFANLPNNAKLEMVPVSRSREGPENIVRIAFQLDDGSRLQDAFCSRQTLWELLSHFAQTRERLQQLGEKTPVCVYMRNEVTGRAALQNTTLQSLGLTGGSATIRFVIKQCDTAGKQESIAVRSKAPGSPVSSLSADQASSSTLLPLNSGEFSRGDLNHEGDANTSGTGLEGGPKPTDAQTKQSTSEPASAPFVPFSGGGQRLGGPSASLRPLTSPSANSSKSFSGPGGPSKPKKPKPGEEPQQEPEPPVDRDPVVYHPDLEDLLQPWPAEVPDEFFEVTVDDVRRRLAQLKSERKRLEEAPLVTKAFREAQMKEKLERYPKVALRVLFPDRYILQGFFRPSETVGDLRDFVRSHLGNPELSFYLFIAPPKMVLDDHTLTLFQANLFPAALVHFGAEEPTGLYLEPGLLEHTVSPSTADVLVARCMSRASGSPPLLPAPDPVSLESEPIAEDGALGPPEPIQGTAQPVKRSLGKVPKWLKLPASKR,not soluble
2,MGSDKIHHHHHHMHFYRSLGPIRAITFDLDDTLYDNADVIRRTGQESIRFLQEYHPALRDFQADDFQNLRQTLLEREPDIYHDVTEWRRRAVELAMLDRGLSAAESKDGAKAAMENFAHWRSQIAITEETHQTLAALAEKVPLAAITNGNAEPHRFGLERYFSFILRAGPHGRAKPFDDMYHLAAEKLNLPLHEILHVGDDLTTDVAGSIRCGMQACWINLREGSLTQIGDARLLPHIEISRLASLSALL,not soluble
3,GPGSMLSRIKRQQEEAQAATRSGGESAINQPGQKESMAVLRLKNDLDNLDGICSKVVIPDPDNMLRMKVTVRPSRPSIWHGGFFDFLLEFREEYPYEGPRVRYVGPNRVWHPNIEGSEFAEKEGMEKASRKTEWSVCLSFQTDWKPTFSLRDVIIMIELLFQDPNPDDPLHGTSKQAAQMMKDDPVRFRTKARYWMSGHYID,soluble
4,MARPLKEGLDYFPLDVDADYDDKFQLIETLHGPTGFAIMIKLFMKIYSQNFYYKWTETEQILFAKRVNVDINTLKTVVNDCIKYDLFDNNLFSEFQILTSLGVQERYFTAIGRRKKQIVVLEYLLLDRPEVINLCPKIVFANINVVNDDINAEQEELMPALSAQTKGKESKVNESKAVVSEQEKLPEKIVKEKPTTTAYKFWEENVAITGLSEFDRELLKKLISLGGNELTVHAMKKAIELNRRRMKTVDTVLRGWLDNGVKTTAEADEQEKNWNGGAKKNARAEPAKQEIKISDQYNFGATRTD,not soluble
5,MGSDKIHHHHHHMHSSEIRYFLVVATTGSLSAASQHLFVAVSAISRQIQRLEERIGVPLFERHARGMVLNDAGRILENHVRKSMMDMDAAVAEIQGLKASRRALLRIGCTEGMAFDLLPTLFARFRQHDPDTTFALKVDSAMQVSQMIRNGEVDIALQFALAPEQGVNVELALPAPLMLLMSDEHPLAQQSIQLADLHPFPLALPESSTTLRQLFDLSCRMNGTFLEPTLCCNNFTTLYYYAMSTPGAVTACSFYSVMYKCLQEPMRLKPLNIKQLDQRSLQIQTLAGKAHAPQQQAFLDFMMAELRQGEAYYLSHMATDMV,not soluble
6,AHQYGVKSYIGIPRSYSHDRTDFMQSEQAEILYYDGKYEETVEFIRDFSKDNGLYDASPGSANSSIDKMMYATIAFEIYEALLTVPSYVIVPVGNGTTLAGIYHGFRRMYDEGVIDHLPRMVGVSTSGGNPIVDSWRHGYSRVVDLNPEEIRETSINEPLVSYRSFDGQDALSAIRETHGRAMYVSDEEMVYYSNLIYSAEGLNPLPASASAVAAIGHLKVKQDETVVSVITGRQI,not soluble
7,MGSDKIHHHHHHMHRSKAALVLAGGGVAGAAYEIGALCAIDQVLEHLSVNEFDVYVGTSAGALISACLANNMSPRTLISVLESSLLGIDQLEPHHLYQLNITDLLYRAAHLPGALVQAIQRWVREGGEVSLLDLIETVAVGLPTGLYDSRSLEQYLRAALEQPGRSNRFADLDHELMIVATDLDTGERAIFGLPPLDNVPISLAVCASAAIPIFYRPVRIGDHDYIDGGLRGTASLDVAIERGAELIVCINPMVPFDNRRHPPGAAISDQGIQRIGNQVFRTFIHAGLHYHIKQVRRRHPEVDIILIEPSRQDRTMFAENTMRFHTRMTIARHGFESVARQLCEHYPYYRAMLARHGITISDERIRQDLRNLQMAGDNPHLVRAALVTGGSLHTAPAGLASTLAELDRLLSRLEVTR,not soluble
